Assay results: PMC12608094, “STN1 Shields CTC1 From TRIM32‐Mediated Ubiquitination to Prevent Cellular Aging” (Aging Cell, 2025)
One block for each molecule: values may come before it.

Columns and labels:
[1] = target: T1, Flag-tagged CTC1 (wild type) (human, UniProt Q2NKJ3 1-1217)
T1 sequence (looked up): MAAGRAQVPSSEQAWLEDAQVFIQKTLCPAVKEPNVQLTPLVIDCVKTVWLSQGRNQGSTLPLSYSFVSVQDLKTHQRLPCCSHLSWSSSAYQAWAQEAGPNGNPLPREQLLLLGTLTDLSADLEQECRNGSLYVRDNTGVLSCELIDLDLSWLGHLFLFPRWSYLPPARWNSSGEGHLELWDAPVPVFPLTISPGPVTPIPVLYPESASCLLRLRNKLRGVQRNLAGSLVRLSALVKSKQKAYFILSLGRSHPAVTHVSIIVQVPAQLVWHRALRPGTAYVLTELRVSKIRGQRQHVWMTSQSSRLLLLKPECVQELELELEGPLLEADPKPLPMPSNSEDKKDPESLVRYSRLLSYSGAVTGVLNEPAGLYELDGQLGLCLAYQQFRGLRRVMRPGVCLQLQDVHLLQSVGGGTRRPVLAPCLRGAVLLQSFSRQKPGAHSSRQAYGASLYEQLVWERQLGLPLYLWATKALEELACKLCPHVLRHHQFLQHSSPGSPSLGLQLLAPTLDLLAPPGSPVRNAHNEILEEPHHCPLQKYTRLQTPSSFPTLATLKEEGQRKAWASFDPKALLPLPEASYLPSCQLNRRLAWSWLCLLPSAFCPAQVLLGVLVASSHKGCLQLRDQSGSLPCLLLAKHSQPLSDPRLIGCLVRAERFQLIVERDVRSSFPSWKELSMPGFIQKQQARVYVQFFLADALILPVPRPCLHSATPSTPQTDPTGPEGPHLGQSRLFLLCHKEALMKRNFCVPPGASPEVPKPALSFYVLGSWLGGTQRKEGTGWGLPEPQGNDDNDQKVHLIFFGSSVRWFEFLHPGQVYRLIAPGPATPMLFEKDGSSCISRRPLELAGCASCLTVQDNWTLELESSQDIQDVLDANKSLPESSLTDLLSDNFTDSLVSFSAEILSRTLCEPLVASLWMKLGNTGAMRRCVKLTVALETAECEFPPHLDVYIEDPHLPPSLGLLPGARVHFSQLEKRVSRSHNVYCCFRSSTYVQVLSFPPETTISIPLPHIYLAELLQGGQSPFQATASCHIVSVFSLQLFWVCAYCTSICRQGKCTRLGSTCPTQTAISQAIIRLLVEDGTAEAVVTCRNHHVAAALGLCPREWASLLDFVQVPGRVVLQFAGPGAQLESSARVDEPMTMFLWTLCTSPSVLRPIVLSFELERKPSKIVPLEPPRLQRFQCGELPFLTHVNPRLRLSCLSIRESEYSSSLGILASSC

[2] = target: T1, Flag-tagged CTC1 (wild type); test: cell-based or functional assay

half-life of Flag-CTC1 in HEK293T cells (CHX chase over 12 h) with HA-STN1OB [1]: 8 h
Molecule: HA-tagged STN1 OB (N-terminal half-truncation) (domain or fragment)

half-life of Flag-CTC1 in HEK293T cells (CHX chase over 12 h) with HA-STN1 wHTH [1]: 5 h
Molecule: HA-tagged STN1 wHTH (C-terminal half-truncation) (domain or fragment)

half-life of Flag-CTC1 in HEK293T cells (CHX chase over 12 h) with HA-STN1 WT [2]: 10 h
B1: HA-tagged STN1 (wild type) (natural protein, human, UniProt Q9H668 1-368, looked up)
chain: MQPGSSRCEEETPSLLWGLDPVFLAFAKLYIRDILDMKESRQVPGVFLYNGHPIKQVDVLGTVIGVRERDAFYSYGVDDSTGVINCICWKKLNTESVSAAPSAARELSLTSQLKKLQETIEQKTKIEIGDTIRVRGSIRTYREEREIHATTYYKVDDPVWNIQIARMLELPTIYRKVYDQPFHSSALEKEEALSNPGALDLPSLTSLLSEKAKEFLMENRVQSFYQQELEMVESLLSLANQPVIHSASSDQVNFKKDTTSKAIHSIFKNAIQLLQEKGLVFQKDDGFDNLYYVTREDKDLHRKIHRIIQQDCQKPNHMEKGCHFLHILACARLSIRPGLSEAVLQQVLELLEDQSDIVSTMEHYYTAF
